Laboratory results from patent US11040083B2, “Polypeptides comprising vinculin binding sites for the treatment of proliferation and/or adhesion related diseases” (PARIS SCIENCES ET LETTRES—QUARTIER LATIN, priority 2015, dated 2021).
Where “and” joins values, the source holds several entries; their conditions need not be identical. Equal values may be shown once.

B1: A524: IpaA 524-633, containing only IpaA VBS1 and VBS2 (protein, listed as Shigella flexneri)
chain: KSKDITKSTTEHRINNKLKVTDANIRNYVTETNADTIDKNHAIYEKAKEVSSALSKVLSKIDDTSAELLTDDISDLKNNNDITAENNNIYKAAKDVTTSLSKVLKNINKD
modifications: A524 / IpaA (524-633)
notes: IpaA 524-633, containing only IpaA VBS1 and VBS2
B2: A483: amino acids 483 to 633 of SEQ ID NO: 1 (IpaA), containing IpaA VBS1, VBS2 and VBS3 (protein, listed as Shigella flexneri)
chain: GDTYLTRETIFEASKKVTNSLSNLISLIGTKSGTQERELQEKSKDITKSTTEHRINNKLKVTDANIRNYVTETNADTIDKNHAIYEKAKEVSSALSKVLSKIDDTSAELLTDDISDLKNNNDITAENNNIYKAAKDVTTSLSKVLKNINKD
modifications: A483 / IpaA (483-633)

What was measured:
[1] = Size exclusion chromatography, hydrodynamic radius; format: physicochemical; conditions: for Radiusm (estimated hydrodynamic radius): SEC Superdex 75, 20 μM equimolar
Method: The purified proteins HVD1, A483, A524 and Talin H1-H4 were used at an equimolar concentration of 20 μM and incubated at 4° C. for one hour in binding buffer. The protein mixtures (200 μL) were injected in a FPLC chromatography system (FPLC Pharmacia) at 16° C. in a Superdex 75 HR 10/30 column (GE Healthcare) previously equilibrated with 10 volumes of binding buffer. The SEC system was calibrated with a Low Molecular Weight Gel Filtration Kit (ref. 17-0442-01, GE Healthcare) and the hydrodynamic radius (Angstroms) of the reference proteins (BSA, OVA, ChyA and RibA) correlated with the elution volume (Ve) using an Euler exponential equation: Hydrodynamic radius (Ang)=210.46 e^−0.189 Ve (mL), with a correlation squared coefficient of R^2=0.9973. Fractions corresponding to elution volume 8-10 mLs were recovered, and analyzed by SDS-PAGE using 15% polyacrylamide gels.

[2] = system: C2.7 mice myoblasts cells; assay: Immunostaining of focal adhesions in transfected cells; format: cell-based; conditions: cells plated for 16 hours
Method: C2.7 mice myoblasts cells were seeded at 2.5×10^4 cells in 5 mm rounded cell culture coverslips. Cells were transfected with 3 μg of pcDNA3.1 NT GFP-A483 plasmid, with 6 μL JetPEI transfection reagent (Polyplus) overnight following manufacturer's recommendations. Control and GFP-A483 transfected cells were fixed (3.7% PFA-PBS), permeabilized (0.1% Triton X-100, Sigma-Aldrich) and incubated with a 1/200 monoclonal m11.5 anti-vinculin antibody (ref. V4505, Sigma-Aldrich). Coverslips were washed and incubated with a 1/200 anti-mouse secondary antibody coupled to Alexa 546 (Jackson Research) and 1/200 Phalloidin A633 (Invitrogen), washed and mounted on slides using Dako mounting medium (Invitrogen). Samples were observed using a confocal microscopy with rotary disc (Roper Scientific®). Peripheral and ventral focal adhesion sizes (vinculin) were separated in three different categories (Small/None, Medium and Large) and the size of their focal adherences scored from three independent experiments. The focal adhesion size's distributions between the control and GFP-A483 transfected cells were compared using a Pearson's Chi-squared test.

MEF cells = assay: TIRF microscopy of focal adhesion markers after ROCK inhibitor Y-27632; format: cell-based; conditions: Paxillin, Vinculin, VASP; after Rho-kinase inhibitor Y-27632; preliminary
Text: FIG. 21 is a set of images showing that IpaA prevents the disassembly of focal adhesions induced by the relaxation of the actomyosin contraction. MEF cells were transfected with focal adhesion proteins Paxillin-Cherry (PAX), Vinculin-Cherry (VIN) or VASP-Cherry (VASP). CTRL: single transfection; A483: cells were co-transfected with GFP-A483. The intensity of focal adhesion proteins (visualized as white dots) is shown at the indicated time points in seconds after the addition of the ROCK inhibitor Y-27632 by TIRF microscopy. A483 prevents the destabilization of FA markers induced by the ROCK inhibitor observed in control cells.
In preliminary experiments, we have analyzed the role of actomyosin contraction on the recruitment of FA markers linked to the supra-activation of vinculin, by treating cells with the Rho-kinase inhibitor Y-27632. The disappearance of markers from FAs was analyzed following in real-time using total internal reflection (TIRF) microscopy. […] Strikingly, VASP, a marker of mature FAs, was also stabilized by A483, while previous studies had shown that this FA marker was not stabilized by active vinculin, deficient for head-tail intra-molecular interaction.

melanocytes = assay: Time lapse cell migration; format: cell-based; conditions: 6 movies per sample, preliminary
C2.7 myoblastic cells = assay: Plating on fibronectin-coated PDMS membranes of different stiffness; format: cell-based; conditions: substrate stiffness 1.5 kPa and 15 kPa
Method: As previously observed, A483 induced the formation of large adhesion structures in C2.7 cells (FIG. 20A). While A483 transfectants induced a spectacular 5.6-fold increase in the number of adherent cells after 60 seconds of incubation, this increase was reduced to 1.3-fold when adhesion was tested after 30 min. These findings were quantified by measuring the resistance to shear stress of cells under flow as a function of the incubation time with the substrate in microfluidic chambers (FIG. 20B). Thus, through its direct binding via IpaA VBS3/TBS or indirect unveiling of binding sites on vinculin “supra-activated”, A483 may “by-pass” mechanosensing normally associated with the initial steps of cell adhesions' formation. While we cannot rule out the possibility that A483 induces an original ex-nihilo adhesion structure, our current results rather argue that it allows the bypassing of actomyosin-dependent mechanosensing steps that would lead to vinculin supra-activation at high actomyosin contraction forces. To further test this, we plated the C2.7 myoblastic cells on various fibronectin-coated PDMS membranes showing different stiffness. As expected, at low substrate stiffness (1.5 kPa), control cells remained spread and isolated, whereas at high substrate stiffness (15 kPa), cells differentiated into myotubes (FIG. 20C).

[3] = system: C2.7 mice myoblasts cells; assay: Cell adhesion kinetics on fibronectin-coated surfaces; format: cell-based
Method: C2.7 mice myoblasts cells were seeded at 2.5×10^5 cells in a 10 cm cell culture petri dish (TPP). Cells were transfected with 15 μg of pcDNA3.1 NT GFP-A483 plasmid, with 45 μL JetPEI transfection reagent (Polyplus) overnight following manufacturer's recommendations. Control and transfected cells were detached and washed in a large volume of DMEM/Hepes (ref. 21063-045, Life Technologies) with 0.2% BSA and 50 ng/mL LPA (ref. L7260, Sigma-Aldrich) without FCS. Some 15,000 control/IpaA cells per well were seeded (DMEM/BSA/LPA, no FCS) in 24-well plates added with 5 mm rounded coverslips coated with 25 μg/mL fibronectin and blocked with 2% BSA-PBS 1×. Plates containing cells were centrifuged at 1000 g for 2 minutes, incubated at 37° C. and fixed (3.7% PFA-PBS) at different time points. Coverslips were stained with an anti-vinculin antibody+Phalloidin as described before (Immunostaining) or with a solution containing 1/200 DAPI (1 mg/mL) for number-of-cells adhesion tests. All coverslips were washed and mounted on slides using Dako mounting medium (Invitrogen) and observed using a confocal microscopy with rotary discs (Roper Scientific®).
To confirm this latter result at the scale of a whole cell population, we performed assays where cells, resuspended by trypsinization, were allowed to adhere for define amounts of time on Fn-coated substrates before washing. Then the number of cells that remained attached to the substrate was measured.

Row | Molecule | Radiusg (hydrodynamic radius of a globular protein with the same MW) [1] [Ang] | Radiusm/Radiusg (RH/RG ratio) [1] | Radiusm (estimated hydrodynamic radius) [1] [Ang] | focal adhesions (FA) in transfected cells [2] | stabilization of FA markers (MEF cells) | effect on cell migration / motility (melanocytes) | myotube formation (C2.7 myoblastic cells) | increase in the number of adherent cells ([3]; adhesion tested after 30 min) [fold] | increase in the number of adherent cells ([3]; after 60 seconds of incubation) [fold]
1 | B1 | 15.36 | 1.88 | 28.93 | not observed |  |  |  |  | 
2 | B2 | 17.99 | 1.83 and 1.80 | 32.86 |  | stabilization of all FA markers studied | strong effect on cell migration | formed myotubes not only at high, but also at low substrate stiffness | 1.3 | 5.6
